# Measured values as given in patent US11072647B2, “TGF-receptor II isoform, fusion peptide, methods of treatment and methods in vitro” (Onsejo Nacional DE Investigation Cientiticay Tecnica, priority 2013, dated 2021).
# B1: TβRII-SE: 80 amino acid soluble endogenous isoform of human TGF-β receptor II lacking the transmembrane domain, SEQ ID No. 2 (protein, listed as Homo sapiens)
# chain: MGRGLLRGLWPLHIVLWTRIASTIPPHVQKSVNNDMIVTDNNGAVKFPQLCKFCDVRFSTCDNQKSCFSKVHYEGKKKAW
# Tested on: A549 cells
# Assay: MTT proliferation assay in transduced A549 cells with TGFβ-1
# Assay type: cell-based, human
# Method: Additionally, to check whether TβRII-SE acts as a TGFβ-1 agonist, A459 cells either overexpressing TβRII-SE or not (untransduced cells or UT) were incubated in the presence of increasing concentrations of TGFβ-1 (FIG. 10B). […] However, in cells overexpressing TβRII-SE, proliferation started to decrease at a TGFβ-1 concentration of 0.1 nM compared to the same cell line without the addition of TGF-β1.
# A549 cells were transduced with lentiviral vectors at a multiplicity of infection (MOI) of 50 in the presence of 8 μg/ml polybrene. Percentage of eGFP positive cells was measured in a FACscalibur (Becton Dikinson) cytometer.
# Cells were harvested, counted, and inoculated at the appropriate concentrations into 96-well plates using a multichannel pipette. After 24 hr, TGF-β1 (10 ng/ml and 20 ng/ml; Sigma) was added to the culture wells, and cultures were incubated for 24 hr and 48 hr at 37° C., under an atmosphere of 5% CO2. MTT (3-(4,5-dimethylthiazol-2-yl)-2,5-diphenyltetrazolium bromide) (Sigma) solution at a concentration of 5 mg/ml was added to the media and the cells were further incubated for 4 hr. After replacing 100 μl of supernatant with 100 μl of DMSO, the absorbance of each well was determined at 540 nm with a SEAC (Sirio S) photometer (Italy). The percentage of cell survival was defined as the relative absorbance of treated versus untreated cells.
molecule,measurement,setting,value
B1,TGFβ-1 concentration at which proliferation started to decrease,"cells overexpressing TβRII-SE, increasing TGFβ-1 concentrations (UT cells: 0.2 nM)",0.1 nM
same,cell proliferation (MTT),"transduced A549 cells, 0.4 nM TGFβ-1 vs untreated",proliferate significantly less than the same cells not treated with TGFβ-1
